Test results reported in paper PMC6322573, “Profiling of advanced glycation end products uncovers abiotic stress-specific target proteins in Arabidopsis” (Journal of Experimental Botany, 2018).

Tests used:
purified protein [1] = substrate: O=CC(O)COP(=O)(O)O; experiment: purified protein; conditions: non-glycated enzyme, 10 mM NAD+, 3 mM DTT, 10 mM sodium phosphate pH 8.5, 100 mM NaCl, 25 °C
purified protein [2] = substrate: O=CC(O)COP(=O)(O)O; experiment: purified protein; format: biochemical, Arabidopsis thaliana; conditions: non-glycated enzyme, 0.1 mM NADH, alpha-glycerophosphate dehydrogenase 5 U, 10 mM sodium phosphate pH 7.0, 100 mM NaCl, 25 °C

Protein	Km (purified protein [1])	kcat (purified protein [1])	kcat/Km (purified protein [1])	Km (purified protein [2])	kcat (purified protein [2])	kcat/Km (purified protein [2])
GAPC1 (cytosolic glyceraldehyde-3-phosphate dehydrogenase C1) (Arabidopsis thaliana) (protein) MADKKIRIGINGFGRIGRLVARVVLQRDDVELVAVNDPFITTEYMTYMFKYDSVHGQWKHNELKIKDEKTLLFGEKPVTVFGIRNPEDIPWAEAGADYVVESTGVFTDKDKAAAHLKGGAKKVVISAPSKDAPMFVVGVNEHEYKSDLDIVSNASCTTNCLAPLAKVINDRFGIVEGLMTTVHSITATQKTVDGPSMKDWRGGRAASFNIIPSSTGAAKAVGKVLPALNGKLTGMSFRVPTVDVSVVDLTVRLEKAATYDEIKKAIKEESEGKLKGILGYTEDDVVSTDFVGDNRSSIFDAKAGIALSDKFVKLVSWYDNEWGYSSRVVDLIVHMSKA	0.77 (±0.21) mM	76.4 s⁻¹	99000 M⁻¹ s⁻¹			
TPI (chloroplastic triosephosphate isomerase) (Arabidopsis thaliana) (protein, measured mass 29273 Da; homodimer) MAGSGKFFVGGNWKCNGTKDSIAKLISDLNSATLEADVDVVVSPPFVYIDQVKSSLTDRIDISGQNSWVGKGGAFTGEISVEQLKDLGCKWVILGHSERRHVIGEKDEFIGKKAAYALSEGLGVIACIGEKLEEREAGKTFDVCFAQLKAFADAVPSWDNIVVAYEPVWAIGTGKVASPQQAQEVHVAVRGWLKKNVSEEVASKTRIIYGGSVNGGNSAELAKEEDIDGFLVGGASLKGPEFATIVNSVTSKKVAA				1.21 (±0.39) mM	18.4 ± 2.25 s⁻¹	15000 M⁻¹ s⁻¹
